Three molecules from patent US20260109742A1 (LUMEN BIOSCIENCE, published 2026) can be followed below.

Test [1] deals with PP1113 (MBP-5HVZ-PAPA-RN-29-H6). The test can be described thus: hydrabody complex of smAKAP-linked VHH dimer with 5HVZ homodimer.
Procedure: Briefly, to Assess in vitro protease stability of clones, purified protein samples were prepared at 0.2 mg/mL in protease digestion buffer (20 mM Bis-Tris, 150 mM NaCl, 3 mM CaCl2 pH 6.0). The protease enzymes trypsin and chymotrypsin were diluted from 1 mg/mL stalk concentration to 0.2 mg/mL in protease digest buffer. Both the protein and enzyme were diluted 1:10 in protease digestion buffer. The digestion reactions were conducted by mixing 30 μL of diluted protein and 30 μL of diluted protease. The reactions were mixed by centrifugation for 30 seconds at high speed and incubated at 37° C. for 60 minutes with shaking at 900 rpm in an Eppendorf ThermoMixer. Reactions were quenched with an equal volume of stop buffer containing 2 mM PMSF and 2× Pierce protease inhibitor minitablet in PBS. The final concentration of each VHH homodimer after protease neutralization was 0.1 mg/mL. Samples were kept on ice for ELISA assay.
Digested protein samples were analyzed for binding activity via ELISA. High-binding ELISA plates were coated with 100 μl/well of 1 μg/mL SARS-COV-2 RBD in CBC binding buffer and incubated overnight at 4° C. Plates were washed 3× with PBS supplemented with 0.05% Tween-20 (PBS-tw), then blocked for 1 hour with 300 μl/well of blocking buffer (PBS-tw supplemented with 5% Non-fat dried milk). […] Absorbance was read at 450 nm with a Spectra Max M5 plate reader.
Test [2] shares this target. The experiment in a line: analytical SEC, 5HVZ dimer with smAKAP clone at 1:2 molar ratio.

B1: PP1895 (S3B-C8_smAKAP-C70S_C78S_S3B-C8_H6) (bispecific antibody)
chain: MSGQVQLVESGGGLVQPGGSLRLSCAASGSIENIERMHWYRQAPGKQRELVAVIDSGGTTRYADSVKGRFTISRDNAKNTVYLQMNSLKPEDTAVYYCAAVWLTNAESTQEYWGQGTQVTVSSGGTVILEYAHRLSQDILSDALQQWASSGGGGSGGGGGQVQLVESGGGLVQPGGSLRLSCAASGSIENIERMHWYRQAPGKQRELVAVIDSGGTTRYADSVKGRFTISRDNAKNTVYLQMNSLKPEDTAVYYCAAVWLTNAESTQEYWGQGTQVTVSSGGSHHHHHH
Take B1: in test [1], the binding result is “binds”.

B2: PP2455 (myctag-S3b-C8-smAKAP_R63E_C70S_C78G-S3b-C8-H6) (bispecific antibody)
chain: MEQKLISEEDLSGGQVQLVESGGGLVQPGGSLRLSCAASGSIENIERMHWYRQAPGKQRELVAVIDSGGTTRYADSVKGRFTISRDNAKNTVYLQMNSLKPEDTAVYYCAAVWLTNAESTQEYWGQGTQVTVSSGGGGSTVILEYAHELSQDILSDALQQWAGGGSGSQVQLVESGGGLVQPGGSLRLSCAASGSIENIERMHWYRQAPGKQRELVAVIDSGGTTRYADSVKGRFTISRDNAKNTVYLQMNSLKPEDTAVYYCAAVWLTNAESTQEYWGQGTQVTVSSHHHHHH
notes: also called R63E mutant
On to B2, for which the binding result in test [2] is “binds”.

B3: PP2456 (myctag-S3b-C8-smAKAP_R63E_C70S_W76S_C78G-S3b-C8-H6) (bispecific antibody)
chain: MEQKLISEEDLSGGQVQLVESGGGLVQPGGSLRLSCAASGSIENIERMHWYRQAPGKQRELVAVIDSGGTTRYADSVKGRFTISRDNAKNTVYLQMNSLKPEDTAVYYCAAVWLTNAESTQEYWGQGTQVTVSSGGGGSTVILEYAHELSQDILSDALQQSAGGGSGSQVQLVESGGGLVQPGGSLRLSCAASGSIENIERMHWYRQAPGKQRELVAVIDSGGTTRYADSVKGRFTISRDNAKNTVYLQMNSLKPEDTAVYYCAAVWLTNAESTQEYWGQGTQVTVSSHHHHHH
notes: also called pp 2456 (W76S)
Turning to B3, the binding result in test [2] was “binds”.
